In data set [1] the target is T1, His-MNK1b (rMNK1b) (UniProt Q9BUB5-3 1-347). The experiment in a line: Ni-NTA pull-down with qPCR. (In general: In qPCR the cycle at which signal appears reflects the starting amount.)
The target in data set [2] is T1, His-MNK1b (rMNK1b). The experiment in a line: ELONA.
The target of data set [3] is GST-MNK1b (human, UniProt Q9BUB5-3 1-347). The experiment in a line: ELONA.

The term Kd denotes the equilibrium constant for the complex coming apart.

B1: apMNK1F (ssDNA)
DNA: GCGGATGAAGACTGGTGTACACGCCGAACCCATTGTTCCAGGCGACATGCCCTAAATACGAGCAAC
For B1, the binding result in data set [1] is on record as “binds”.

B2: apMNK4F (ssDNA)
DNA: GCGGATGAAGACTGGTGTACAACGGGCAGCCAGGTCTTCGTCGTGTGTGCCCTAAATACGAGCAAC
Consider B2, for which the binding result in data set [2] is “binds”.

B3: apMNK3R (ssDNA)
DNA: GTTGCTCGTATTTAGGGCGGGGGTGGGCGGATTTCGCAGGTGGCGTGTACACCAGTCTTCATCCGC
In data set [3], B3 showed a dissociation constant (Kd) of 6.36 ± 1.72 nM.

B4: apMNK3F (ssDNA)
DNA: GCGGATGAAGACTGGTGTACACGCCACCTGCGAAATCCGCCCACCCCCGCCCTAAATACGAGCAAC
Turning to B4, the binding result in data set [2] was “binds”.

B5: apMNK4R (ssDNA)
DNA: GTTGCTCGTATTTAGGGCACACACGACGAAGACCTGGCTGCCCGTTGTACACCAGTCTTCATCCGC
B5: in data set [1], the binding result is “binds”.

B6: apMNK2F (ssDNA)
DNA: GCGGATGAAGACTGGTGTGGGGTGGGCGGGCGGGGGTGGGGGTGGTATGGCGCGTTGGCCCTAAATACGAGCAAC
In data set [3], B6 returned a dissociation constant (Kd) of 1.79 ± 0.48 nM.

The values are drawn from paper PMC5012548.
